The record followed here is FireProtDB (doi:10.1021/bi00116a007).

For this data set the following is noted: Escherichia coli (strain K12); pH 7.5; 25 °C; Urea; DSC; potassium-HEPES 40 mM; reversible: yes; whole UniProt chain shown.

B1: Aspartate aminotransferase wild type, P00509 (protein)
chain: MFENITAAPADPILGLADLFRADERPGKINLGIGVYKDETGKTPVLTSVKKAEQYLLENETTKNYLGIDGIPEFGRCTQELLFGKGSALINDKRARTAQTPGGTGALRVAADFLAKNTSVKRVWVSNPSWPNHKSVFNSAGLEVREYAYYDAENHTLDFDALINSLNEAQAGDVVLFHGCCHNPTGIDPTLEQWQTLAQLSVEKGWLPLFDFAYQGFARGLEEDAEGLRAFAAMHKELIVASSYSKNFGLYNERVGACTLVAADSETVDRAFSQMKAAIRANYSNPPAHGASVVATILSNDALRAIWEQELTDMRQRIQRMRQLFVNTLQEKGANRDFSFIIKQNGMFSFSGLTKEQVLRLREEFGVYAVASGRVNVAGMTPDNMAPLCEAIVAVL
For B1, the denaturant m value was determined as 2.56 kcal/mol/M, the “denaturant midpoint (higher = more stable)” value came to 3.89 M and the unfolding free energy came to 9.96 kcal/mol.
